{
  "source": "paper PMC6947424",
  "about": "“New Targeted Gold Nanorods for the Treatment of Glioblastoma by Photodynamic Therapy” (Journal of Clinical Medicine, 2019)",
  "key": {"[1]": {"conditions": "in EtOH; ref [73]; cited from earlier work", "protocol": "(§1) Fluorescence quantum yields (Φf) were determined using a tetraphenyl porphyrin (TPP) solution as the fluorescence standard (Φf = 0.11 in toluene, taking into account solvent refractive index and absorption efficiencies. For the direct determination of ^1O2 quantum yield (ΦΔ), excitation was performed with a Xe-arc, the light was separated in a SPEX 1680, 0.22 µm double monochromator. Detection at 1270 nm was carried out through a PTI S/N 1565 monochromator and the emission was monitored by a liquid nitrogen cooled Ge-detector (EO-817L, North Coast Scientific Co, OH, USA). Rose Bengal (R ..."}, "[2]": {"conditions": "in toluene; ref [72]; cited from earlier work", "protocol": "as §1, with “... || These findings are also consistent with the Φf value of Pyro reported by other authors (Φf = 0.3 and in methanol). […] This property can serve in the ...” for “...”"}, "[3]": {"assay": "Fluorescence emission (quantum yield and lifetime)", "assay_type": "physicochemical", "conditions": "ethanol", "protocol": "(§2) The setup and the protocol to evaluate the photophysical characterizations including the absorption, fluorescence, and singlet oxygen emission spectra in addition to the fluorescence and singlet oxygen lifetimes have been previously described by our team. The absorption spectra were recorded on a UV-3600 UV–vis double beam spectrophotometer (Shimadzu, Marne La Vallée, France) in the wavelength range of 200-800 nm. The measurements were performed on the molecules dispersed in ethanol in quartz cuvettes with an optical path of 10 mm. The fluorescence spectra were recorded on a Horiba Jobin Yvon Fluorolog-3 (FL3-222) spectrofluorimeter equipped with a 450W xenon lamp, a thermostated cell compartment (25 °C), a R928 (Hamamatsu, Massy, France) UV–vis photomultiplier and a liquid nitrogen cooled InGaAs infrared detector (DSS-16A020L Electro-Optical System Inc., Phoenixville, PA, USA). The excitation spectrometer used is a SPEX double grating monochromator (1200 grooves per mm blazed at 330 nm). The fluorescence was measured using the UV–vis detector through a SPEX double grating monochromator (600 grooves per mm blazed at 500 nm). The singlet oxygen production was measured using the IR detector through a SPEX double grating monochromator (600 grooves per mm blazed at 1 μm).\nas §1, with “(RB) was chosen as a reference solution because of its high ^1O2 quantum yield in EtOH (ΦΔ = 0.68). The absorbance value at the excitation wavelengths (412 nm) of both the reference and the sample solutions were set to approximately 0.2 by dilution. The samples were all prepared in ethanol.” for “(R ...”\nThe quantum yield of fluorescence is determined by the equation (1):(1) Φf=Φf0×If/If0×[…]×(n/n0)^2 where Φf and Φf0, If and If0, DO and DO0, n and n0 are the quantum yields, intensities, optical densities and refraction indices of the sample and reference, respectively.\n(§3) Fluorescence lifetimes were measured by Time-Correlated Single Photon Counting (TCSPC) using for excitation a pulsed laser diode LDH-P-C-405 coupled with a PDL 800-D driver (both from PicoQuant GmbH, Berlin, Germany) emitting at 408 nm (FWHM < 70 ps, 1 MHz) and an SPCM-AQR-15 avalanche photodiode (EG & G, Vaudreuil, Canada) coupled with a 650 nm (±10 nm) interference long-wave pass filter as the detection system. The acquisition system was a PicoHarp 300 module with a PHR-800 four-channel router (both from PicoQuant GmbH, Berlin, Germany). Fluorescence decays were recorded using the single photon counting method (four optical faced quartz cells for pure products in ethanol). Data were collected, and up to 1000 counts were accumulated in the maximum channel and analyzed using Fluofit TCSPC software (PicoQuant GmbH, Berlin, Germany) based on iterative reconvolution using a Levensberg-Marquandt algorithm. Singlet oxygen lifetime measurements have been performed on a TEMPRO-01 spectrophotometer (Horiba Jobin Yvon, Palaiseau, France). The apparatus was composed of a pulsed diode excitation source SpectraLED-415 emitting at 415 nm, a cuvette compartment, a Seya–Namioka type emission monochromator (600–2000 nm), and an H10330-45 near-infrared photomultiplier tube with a thermoelectric cooler (Hamamatsu, Massy, France) as the detection system. The system was monitored by a single photon counting controller FluoroHub-B and the software DataStation and DAS6 (Horiba Jobin Yvon, Palaiseau, France). […]"}, "[4]": {"assay": "Singlet oxygen production (quantum yield and lifetime)", "assay_type": "physicochemical", "conditions": "ethanol", "protocol": "as §2\nas §1, with “(RB) was chosen as a reference solution because of its high ^1O2 quantum yield in EtOH (ΦΔ = 0.68). The absorbance value at the excitation wavelengths (412 nm) of both the reference and the sample solutions were set to approximately 0.2 by dilution. The samples were all prepared in ethanol.” for “(R ...”\nThe quantum yield of singlet oxygen production is determined by the equation (2):(2) ΦΔ=ΦΔ0×I/I0×[…] where ΦΔ and ΦΔ0, I and I0, DO and DO0 are the luminescence quantum yields of singlet oxygen, the luminescence intensities and the optical densities of the sample and reference, respectively.\nas §3"}, "[5]": {"assay": "UV-vis absorption", "assay_type": "physicochemical", "conditions": "ethanol, Soret band", "protocol": "as §2\nThe photophysical properties at the different synthetic stages of the hybrid AuNRs@PEG-MI-K(Pyro)DKPPR-OH, including the peptide derivatives as intermediates, were studied and compared to that of free Pyro. These properties include the UV-vis absorption, the florescence emission (quantum yield (Φf) and lifetime (τf)) and the ^1O2 production (quantum yield (ΦΔ) and lifetime (τΔ)). To determine these properties, the optical density (OD) of the Soret band of the Pyro component (412 nm) was adjusted at about 0.2. Controls, such as TPP dissolved in toluene, as a standard for fluorescence emission, and RB dissolved in ethanol, as a standard for ^1O2 production, were used. Ethanol was chosen to dissolve the studied molecules since it is a convenient solvent for the detection of fluorescence and ^1O2 emission. […]"}, "[6]": {"molecular_target": "T1, recombinant NRP-1 protein (neuropilin-1) (UniProt O14786 22-856)", "T1 construct": "Neuropilin-1 (NRP-1), recombinant protein bought from Bio-Techne; Coated on the ELISA plate; also called neuropilin-1 receptor; NPR-1; source: bought: Bio-Techne", "T1 sequence (looked up)": "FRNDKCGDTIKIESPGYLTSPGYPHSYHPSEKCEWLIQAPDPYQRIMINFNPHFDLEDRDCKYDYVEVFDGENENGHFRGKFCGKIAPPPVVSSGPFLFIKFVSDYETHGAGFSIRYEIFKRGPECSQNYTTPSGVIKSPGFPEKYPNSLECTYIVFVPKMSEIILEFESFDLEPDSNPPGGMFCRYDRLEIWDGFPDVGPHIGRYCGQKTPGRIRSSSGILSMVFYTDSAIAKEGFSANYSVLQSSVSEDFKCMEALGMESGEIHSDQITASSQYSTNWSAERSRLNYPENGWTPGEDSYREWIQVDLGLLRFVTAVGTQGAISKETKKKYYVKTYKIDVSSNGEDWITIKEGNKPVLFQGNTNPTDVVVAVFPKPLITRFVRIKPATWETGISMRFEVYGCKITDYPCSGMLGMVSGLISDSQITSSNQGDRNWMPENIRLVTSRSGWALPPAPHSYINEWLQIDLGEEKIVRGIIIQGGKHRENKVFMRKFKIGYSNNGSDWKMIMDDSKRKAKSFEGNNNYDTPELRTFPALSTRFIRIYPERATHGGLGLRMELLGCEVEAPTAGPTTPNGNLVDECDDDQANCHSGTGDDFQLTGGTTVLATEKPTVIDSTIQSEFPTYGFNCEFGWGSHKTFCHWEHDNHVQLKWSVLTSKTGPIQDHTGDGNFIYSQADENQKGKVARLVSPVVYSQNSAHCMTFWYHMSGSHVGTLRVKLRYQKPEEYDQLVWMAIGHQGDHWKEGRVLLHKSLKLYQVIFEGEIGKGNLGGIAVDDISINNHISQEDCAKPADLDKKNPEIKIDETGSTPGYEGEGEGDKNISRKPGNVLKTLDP", "assay": "ELISA; competition; NRP-1 coated on 96 well plate at 2 μg/mL in PBS overnight at room temperature, blocked with PBS 0.5 % BSA; 5 ng/mL biotinylated VEGF-A165 in blocking buffer with 2 μg/mL heparin, with different peptide concentrations of competitor, 2 h at room temperature; streptavidin-HRP, OD 450 nm", "conditions": "both partners purified"}},
  "note": "No end group written: not given here. *: point of attachment. Pyropheophorbide(a) = C=Cc1c(C)c2cc3nc(c4c5[nH]c(cc6nc(cc1[nH]2)C(C)=C6CC)c(C)c5C(=O)C4)[C@@H](CCC(=O)*)[C@@H]3C; Hexanoyl(6-maleimido) = O=C1C=CC(=O)N1CCCCCC(=O)*",
  "data": [
    {"molecule": "O=C([O-])c1c(Cl)c(Cl)c(Cl)c(Cl)c1-c1c2cc(I)c(=O)c(I)c-2oc2c(I)c([O-])c(I)cc12.[Na+].[Na+]", "note": "[Rose Bengal]", "values": [
      {"measurement": "ΦΔ of singlet oxygen reference", "setting": "[1]", "result": 0.68}
    ]},
    {"molecule": "C1=Cc2nc1c(-c1ccccc1)c1nc(c(-c3ccccc3)c3ccc([nH]3)c(-c3ccccc3)c3ccc([nH]3)c2-c2ccccc2)C=C1", "note": "[TPP, tetraphenyl porphyrin]", "values": [
      {"measurement": "Φf of fluorescence standard", "setting": "[2]", "result": 0.11}
    ]},
    {"molecule": "H-K(Pyro)DKPPR-OH [DKPPR peptide extended with Pyro-bearing lysine, free N-terminus]", "values": [
      {"measurement": "τf (fluorescence lifetime)", "setting": "[3]; TCSPC, single exponential fit", "result": 6.8, "unit": "ns"},
      {"measurement": "Φf (fluorescence quantum yield)", "setting": "[3]; excitation 412 nm, TPP in toluene as standard, 25 °C", "result": 0.34},
      {"measurement": "τΔ (singlet oxygen lifetime)", "setting": "[4]", "result": 14, "unit": "μs"},
      {"measurement": "ΦΔ (singlet oxygen quantum yield)", "setting": "[4]; excitation 412 nm, detection 1270 nm, Rose Bengal as reference", "result": 0.44},
      {"measurement": "λmax", "setting": "[5]", "result": 412, "unit": "nm"}
    ]},
    {"molecule": "H-KDKPPR-OH (free peptide with free N-terminus (H-) and free C-terminal acid (-OH), developed by the authors' team to target NRP-1; also called free KDKPPR peptide; source: synthetic peptide)", "note": "[H-KDKPPR-OH peptide]", "values": [
      {"measurement": "IC50", "setting": "[6]", "result": 2000, "unit": "nM"}
    ]},
    {"molecule": "{Hexanoyl(6-maleimido)}-K(Pyropheophorbide(a))DKPPR-OH (SMILES C=Cc1c(C)c2cc3nc(c4c5[nH]c(cc6nc(cc1[nH]2)C(C)=C6CC)c(C)c5C(=O)C4)[C@@H](CCC(=O)NCCCC[C@H](NC(=O)CCCCCN1C(=O)C=CC1=O)C(=O)N[C@@H](CC(=O)O)C(=O)N[C@@H](CCCCN)C(=O)N1CCC[C@H]1C(=O)N1CCC[C@H]1C(=O)N[C@@H](CCCNC(=N)N)C(=O)O)[C@@H]3C, KDKPPR peptide; first lysine bears Pyro on its side chain and MI on its alpha-amine; free C-terminal acid; also called PP-PS conjugate; peptide-photosensitizer conjugate; source: synthetic peptide (Fmoc/tBu solid phase, preparative HPLC))", "note": "[MI-K(Pyro)DKPPR-OH]", "values": [
      {"measurement": "IC50", "setting": "[6]", "result": 1500, "unit": "nM"}
    ]},
    {"molecule": "K(Pyropheophorbide(a))DKPPR-OH (other, not fully specified (N-terminus); printed as AuNRs@PEG-MI-K(Pyro)DKPPR-OH; also: MI joined by thioether to AuNRs@PEG-SH, KDKPPR peptide of m4, grafted through its N-terminal maleimide onto the surface of PEGylated gold nanorods; Many peptide copies on each nanorod (multivalent); 1 mg/mL of the nanorods holds 257.7 µM of peptide; also called hybrid AuNRs; functionalized AuNRs)", "note": "[AuNRs@PEG-MI-K(Pyro)DKPPR-OH]", "values": [
      {"measurement": "IC50", "setting": "[6]", "result": 1100, "unit": "nM"}
    ]}
  ]
}
